The record followed here is article PMC10746525.

pKd: −log10 of the molar value.

Experiment [1] has as its target GCN4-TRAK1_(342-431) (UniProt Q9UPV9). Nature of the experiment: ITC; VP-ITC, 25 °C; ITC buffer (20 mM Hepes pH 7.5, 400 mM NaCl, 1 mM MgCl2, 5% w/v sucrose, 0.1 μM GTP) with 50 μM CaCl2; MIRO1_(177-591) in the syringe, TRAK1 construct in the cell. In general terms: ITC needs no label: the signal is the heat of the interaction.
Experiment [2] shares this target. The experiment in a line: ITC; VP-ITC, 25 °C; ITC buffer (20 mM Hepes pH 7.5, 400 mM NaCl, 1 mM MgCl2, 5% w/v sucrose, 0.1 μM GTP) with 5 mM EGTA; the binder of each row in the syringe.

Sequence of MIRO1_(177-591) (Q8IXI2 177-591): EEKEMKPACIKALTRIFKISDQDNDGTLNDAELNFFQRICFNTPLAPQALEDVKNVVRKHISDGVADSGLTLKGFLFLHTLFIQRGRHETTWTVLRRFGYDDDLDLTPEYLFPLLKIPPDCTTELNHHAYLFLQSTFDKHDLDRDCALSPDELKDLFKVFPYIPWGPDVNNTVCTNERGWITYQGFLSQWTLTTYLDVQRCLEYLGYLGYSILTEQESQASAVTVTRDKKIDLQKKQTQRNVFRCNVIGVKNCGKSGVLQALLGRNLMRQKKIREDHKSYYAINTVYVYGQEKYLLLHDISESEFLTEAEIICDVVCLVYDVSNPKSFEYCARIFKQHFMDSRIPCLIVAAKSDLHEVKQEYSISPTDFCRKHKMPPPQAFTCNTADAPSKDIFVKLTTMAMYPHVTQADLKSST

Turning to “MIRO1_(177-591) (from UniProt Q8IXI2 177-591) (domain or fragment)”, the negative logarithm of the Kd (pKd) in the experiment with GCN4-TRAK1_(342-431) [1] is 5.15; with GCN4-TRAK1_(342-431) [2], 5.29. Moreover, the stoichiometry N in the experiment with GCN4-TRAK1_(342-431) [1] was 1.93; with GCN4-TRAK1_(342-431) [2], 1.84.

One may read the pKd as the negative decadic logarithm of the Kd, by convention in mol/L. A higher pKd goes with a small Kd. The term stoichiometry N denotes a count of units in the complex or per binding partner.
